Key:
Test in all cases: pull-down; 4 μg GST protein with 2 μg HIS-S5a in 800μL 2% Chaps buffer (20mM Tris pH 8.0, 150mM NaCl, 2mM MgCl2, 10% glycerol, 2.0% Chaps), glutathione agarose beads, 2 hrs at room temperature; washes with PBS, 2% Tween-20, 200 mM KCl; blot for S5a
Settings in all cases: both partners purified
[1] = molecular target: T1, GST-ubiquilin-2 P506T (human, UniProt Q9UHD9 1-624, P506T)
T1 construct: ubiquilin-2, human, full-length cDNA, 624 aa, ALS-linked mutation P506T; pGST/His T1 vector; also called P506T mutation; source: E. coli BL21(DE3), purified (glutathione-agarose); not shown: GST, N-terminal, kept
T1 sequence (Q9UHD9 whole entry P506T): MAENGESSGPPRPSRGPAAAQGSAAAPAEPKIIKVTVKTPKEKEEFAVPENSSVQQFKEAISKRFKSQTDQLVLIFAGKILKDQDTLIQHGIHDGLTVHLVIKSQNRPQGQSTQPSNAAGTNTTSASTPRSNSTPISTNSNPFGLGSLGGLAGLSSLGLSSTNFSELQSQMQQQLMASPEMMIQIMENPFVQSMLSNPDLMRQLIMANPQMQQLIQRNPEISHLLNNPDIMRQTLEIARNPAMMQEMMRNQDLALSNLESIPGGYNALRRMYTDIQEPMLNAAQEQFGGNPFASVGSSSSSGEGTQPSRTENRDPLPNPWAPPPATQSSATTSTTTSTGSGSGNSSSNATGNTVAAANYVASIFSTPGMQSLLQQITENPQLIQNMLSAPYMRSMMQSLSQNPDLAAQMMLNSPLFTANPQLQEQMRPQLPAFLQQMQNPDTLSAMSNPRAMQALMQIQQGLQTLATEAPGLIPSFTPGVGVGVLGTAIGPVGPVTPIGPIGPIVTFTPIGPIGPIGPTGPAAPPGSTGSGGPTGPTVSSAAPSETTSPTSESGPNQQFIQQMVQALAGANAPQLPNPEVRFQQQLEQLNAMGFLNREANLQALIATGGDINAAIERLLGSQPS

[2] = molecular target: T2, GST-ubiquilin-2 P509S (human, UniProt Q9UHD9 1-624, P509S)
T2 construct: ubiquilin-2, human, full-length cDNA, 624 aa, ALS-linked mutation P509S; pGST/His T1 vector; also called P509S mutation; source: E. coli BL21(DE3), purified (glutathione-agarose); not shown: GST, N-terminal, kept
T2 sequence (Q9UHD9 whole entry P509S): as the sequence (Q9UHD9 whole entry P506T) above, with T506P, P509S counted along it

[3] = molecular target: T3, GST-ubiquilin-2 P525S (human, UniProt Q9UHD9 1-624, P525S)
T3 construct: ubiquilin-2, human, full-length cDNA, 624 aa, ALS-linked mutation P525S; pGST/His T1 vector; also called P525S mutation; source: E. coli BL21(DE3), purified (glutathione-agarose); not shown: GST, N-terminal, kept
T3 sequence (Q9UHD9 whole entry P525S): as the sequence (Q9UHD9 whole entry P506T) above, with T506P, P525S counted along it

[4] = molecular target: T4, GST-ubiquilin-2 wild type (human, UniProt Q9UHD9 1-624)
T4 construct: ubiquilin-2, human, full-length cDNA, 624 aa; cloned downstream of GST in the pGST/His T1 vector; also called GST-fusion protein encoding WT ubiquilin-2; source: E. coli BL21(DE3), purified (glutathione-agarose); not shown: GST, N-terminal, kept
T4 sequence (Q9UHD9 whole entry, the tested form may be a part): as the sequence (Q9UHD9 whole entry P506T) above, with T506P counted along it

[5] = molecular target: T5, GST-ubiquilin-2 P497H (human, UniProt Q9UHD9 1-624, P497H)
T5 construct: ubiquilin-2, human, full-length cDNA, 624 aa, ALS-linked mutation P497H; pGST/His T1 vector; also called P497H mutation; source: E. coli BL21(DE3), purified (glutathione-agarose); not shown: GST, N-terminal, kept
T5 sequence (Q9UHD9 whole entry P497H): as the sequence (Q9UHD9 whole entry P506T) above, with P497H, T506P counted along it

[6] = molecular target: T6, GST-ubiquilin-2 P497S (human, UniProt Q9UHD9 1-624, P497S)
T6 construct: ubiquilin-2, human, full-length cDNA, 624 aa, ALS-linked mutation P497S; pGST/His T1 vector; also called P497S mutation; source: E. coli BL21(DE3), purified (glutathione-agarose); not shown: GST, N-terminal, kept
T6 sequence (Q9UHD9 whole entry P497S): as the sequence (Q9UHD9 whole entry P506T) above, with P497S, T506P counted along it

Measured: binding result

B1: HIS-tagged human S5a protein (natural protein, UniProt P55036 1-377, looked up)
chain: MVLESTMVCVDNSEYMRNGDFLPTRLQAQQDAVNIVCHSKTRSNPENNVGLITLANDCEVLTTLTPDTGRILSKLHTVQPKGKITFCTGIRVAHLALKHRQGKNHKMRIIAFVGSPVEDNEKDLVKLAKRLKKEKVNVDIINFGEEEVNTEKLTAFVNTLNGKDGTGSHLVTVPPGPSLADALISSPILAGEGGAMLGLGASDFEFGVDPSADPELALALRVSMEEQRQRQEEEARRAAAASAAEAGIATTGTEDSDDALLKMTISQQEFGRTGLPDLSSMTEEEQIAYAMQMSLQGAEFGQAESADIDASSAMDTSEPAKEEDDYDVMQDPEFLQSVLENLPGVDPNNEAIRNAMGSLASQATKDGKKDKKEEDKK
notes: S5a subunit of the 19S cap of the proteasome, human, entire open reading frame (377 aa); cloned in pET-21a; also called His-S5a; HIS-S5a; source: E. coli BL21(DE3), purified (Ni-NTA agarose)
binds: all assays above

Source: PMC4468220, “Defective Proteasome Delivery of Polyubiquitinated Proteins by Ubiquilin-2 Proteins Containing ALS Mutations” (PLoS ONE, 2015)
